Experimental data reported in US11819542B2, “Immunotherapeutic method for treating lung cancer by administering a polypeptide comprising an epitope of hZP3” (Pantarhei Bioscience B.V., priority 2017, dated 2023).

Assays:
[1] = tested on: hZP3-positive B16-HLA-A2 melanoma tumor; test: Therapeutic immunization of HLA-A2 transgenic mice with ZP3-expressing tumor: tumor size; format: in vivo; conditions: female HLA-A2 transgenic mice, ZP3 expressing tumors, 2 s.c. immunizations (prime D7-10, boost D14-17) plus GM-CSF/CpG, tumor size increased with PBS
Description: (§1) FIG. 5: Schedule for administration of hZP3-positive B16-HLA-A2 melanoma tumor cells and an hZP3 peptide-mixture (comprising peptides 4, 5, 6, 8 and 9 in Table 5), or rhZP3^1-383 protein to HLA-A2 transgenic mice. On Day 0 (D0), a tumor injection with 10^6 cells/mouse was given subcutaneously (s.c.). Thereafter, the prime injection was administered 7 to 10 days (D7-10) and a boost injection on Day 14 to Day 17 (D14-17). Tumor size was monitored after treatment. At Day 30 to 35, mice were sacrificed to determine hZP3 specific CD8^+ responses (ELISpot).
An in vivo pre-clinical efficacy study has been conducted to assess the immune response and the anti-tumor response after immunization with rhZP3 polypeptide (aa 1-383 with his-tag) and 5 different ZP3 epitopes. The hZP3 epitopes were selected based on CD8^+ T cell responses observed during previously performed immunogenicity experiments with rhZP3 polypeptide (aa 1-383) and with pools of peptides comprising hZP3 epitopes as indicated (see Table 5) combined with different adjuvants (data not shown). The peptides were synthesized by Pepscan (the Netherlands) at a purity >96%. […]
(§2) On Day 0 (DO), a tumor injection with 10^6 cells/mouse (s.c.) was given. […] Tumor size was monitored after treatment. […]

[2] = tested on: hZP3 specific CD8^+ responses; test: ZP3 specific CD8+ T cell response after immunization (interferon-γ ELISpot); format: in vivo; conditions: HLA-A2 transgenic mice with ZP3 expressing tumors, after prime and boost immunization plus GM-CSF/CpG, Day 30 to 35
Description: as §1
FIG. 7: CD8^+ T cell responses as determined by interferon-γ (IFNg) ELISpot as measured against the peptides (all 5 or peptides 4, 5, 6, 8 or 9 individually) after immunization with the mixture of the 5 hZP3 peptides (peptide), or after immunization with the rhZP3^1-383 protein ZP3 (prot).
An in vivo pre-clinical efficacy study has been conducted to assess the immune response and the anti-tumor response after immunization with rhZP3 polypeptide (aa 1-383 with his-tag) and 5 different ZP3 epitopes. […]
as §2

[3] = listed as hZP3 polypeptide (aa 1-383)

B1: rhZP3 protein: rhZP3 polypeptide (aa 1-383 with his-tag), 100 μg s.c. plus GM-CSF/CpG as adjuvant (protein)
chain: QPLWLLQGGASHPETSVQPVLVECQEATLMVMVSKDLFGTGKLIRAADLTLGPEACEPLVSMDTEDVVRFEVGLHECGNSMQVTDDALVYSTFLLHDPRPVGNLSIVRTNRAEIPIECRYPRQGNVSSQAILPTWLPFRTTVFSEEKLTFSLRLMEENWNAEKRSPTFHLGDAAHLQAEIHTGSHVPLRLFVDHCVATPTPDQNASPYHTIVDFHGCLVDGLTDASSAFKVPRPGPDTLQFTVDVFHFANDSRNMIYITCHLKVTLAEQDPDELNKACSFSKPSNSWFPVEGSADICQCCNKGDCGTPSHSRRQPHVMSQWSRSASRN
Tumor size after treatment [1]: no growth of the tumor was observed | Tumor size after treatment [1, 3]: no increase in tumor size was observed | CD8^+ T cell response (IFNg ELISpot) ([2]; listed as ZP3 protein): a TCD8 response was observed | CD8^+ T cell response (IFNg ELISpot) [2, 3]: induced CD8^+ T cells
